Laboratory results reported in the RNAGym collection of RNA variant scans (doi:10.1093/molbev/msab373).

B1: Azoarcus group I ribozyme (parent)
chain: GUGCCUUGCGCCGGGAAACCACGCAAGGGAUGGUGUCAAAUUCGGCGAAACCUAAGCGCCCGCCCGGGCGUAUGGCAACGCCGAGCCAAGCUUCGGCGCCUGCGCCGAUGAAGGUGUAGAGACUAGACGGCACCCACCUAAGGCAAACGCUAUGGUGAAGGCAUAGUCCAGGGAGUGGCGAAAGUCACACAAACCGG

Variants of: B1
Assay: reverse-splicing fitness (ratio to wild type); higher = more active; in vitro selection; Mg2+ level not given
Summary of the method: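 An in vitro group I ribozyme library with randomized positions was T7-transcribed and gel-purified. In triplicate, 10 pmol RNA in EPPS pH 7.5 was reacted with 50 pmoles of a 30-nt RNA substrate for 1 h at 37 °C across several added MgCl2 levels (1–48 mM), then stopped with EDTA. Products were reverse transcribed from a substrate-complementary primer, PCR-amplified and sequenced (HiSeq 4000). Fitness is a variant's read proportion after selection over that before, normalised to wild type.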

Variant | reverse-splicing fitness
C82A A111G A120C A145C C169U U176C | 0.0138
C82A A111G A120C A145C C169U U176A | 0.0161
C82A A111G A120C A145C C169U U176G | 0.00478
C82A A111G A120C A145G C169U | 0.013
C82A A111G A120C A145G C169A | 0.0112
C82A A111G A120C A145G C169G | 0.00928
C82A A111C A145U C150U C169U U176C | 0.0144
C82A A111C A145U C150U C169U U176G | 0.00857
C82A A111C A145U C150U C169U U176A | 0.0172
C82A A111C A145U U176A | 0.073
C82A A111C A145U U176C | 0.0939
C82A A111C A145U U176G | 0.0235
C82A A111G A120C A145G C150A C169U U176G | 0.00842
C82A A111G A120C A145G C150A C169U U176A | 0.0153
C82A A111G A120C A145G C150A C169U U176C | 0.0154
C82A A111C C150A U176A | 0.0165
C82A A111C C150A U176C | 0.0285
C82A A111C C150A U176G | 0.0104
C82A A111C C150U C169A U176A | 0.0146
C82A A111C C150U C169A U176C | 0.0125
C82A A111C C150U C169A U176G | 0.00801

Variant | reverse-splicing fitness
C82A A111G A120C A145U C150U C169G | 0.00921
C82A A111G A120C A145U C150U C169U | 0.0117
C82A A111G A120C A145U C150U C169A | 0.0102
C82A A111G A120C A145G C169G U176G | 0.0054
C82A A111G A120C A145G C169G U176A | 0.0216
C82A A111G A120C A145G C169G U176C | 0.0275
C82A A111C A145G U176G | 0.017
C82A A111C A145G U176C | 0.0992
C82A A111C A145G U176A | 0.0768
C82A A111C A145G C169A | 0.0103
C82A A111C A145G C169U | 0.0142
C82A A111C A145G C169G | 0.00878
C82A A111G A120C A145U C150G C169G U176A | 0.00801
C82A A111G A120C A145U C150G C169G U176C | 0.00564
C82A A111G A120C A145U C150G C169G U176G | 0.00589
C82A A111G A120C A145U C150U C169A U176C | 0.0127
C82A A111G A120C A145U C150U C169A U176G | 0.00591
C82A A111G A120C A145U C150U C169A U176A | 0.0157
C82A A111C A145U C150G C169G U176G | 0.00861
C82A A111C A145U C150G C169G U176C | 0.0061
C82A A111C A145U C150G C169G U176A | 0.00679

Variant | reverse-splicing fitness
C82A A111G A120C A145C C150G U176C | 0.00712
C82A A111G A120C A145C C150G U176A | 0.00522
C82A A111G A120C A145C C150G U176G | 0.00265
C82A A111C C150A C169U U176G | 0.0104
C82A A111C C150A C169U U176C | 0.0182
C82A A111C C150A C169U U176A | 0.0161
C82A A111G A120C A145G C150G C169A U176C | 0.0137
C82A A111G A120C A145G C150G C169A U176A | 0.0145
C82A A111G A120C A145G C150G C169A U176G | 0.00827
C82A A111G A120C A145U C150U | 0.0296
C82A A111G A120C A145U C150G | 0.011
C82A A111G A120C A145U C150A | 0.0115
C82A A111G A120C A145G C169U U176A | 0.0149
C82A A111G A120C A145G C169U U176C | 0.0146
C82A A111G A120C A145G C169U U176G | 0.00528
C82A A111C A145U C169A | 0.0078
C82A A111C A145U C169U | 0.0124
C82A A111C A145U C169G | 0.0101
C82A A111C C169A | 0.00822
C82A A111C C169U | 0.0139
C82A A111C C169G | 0.00911

Variant | reverse-splicing fitness
C82A A111C A145U C150A | 0.0227
C82A A111C A145U C150G | 0.0181
C82A A111C A145U C150U | 0.135
C82A A111G A120C A145C C169G | 0.00965
C82A A111G A120C A145C C169A | 0.00673
C82A A111G A120C A145C C169U | 0.0116
C82A A111C A145U C150A C169U | 0.0123
C82A A111C A145U C150A C169A | 0.00982
C82A A111C A145U C150A C169G | 0.00915
C82A A111G A120C A145C C150U C169G U176A | 0.025
C82A A111G A120C A145C C150U C169G U176C | 0.0213
C82A A111G A120C A145C C150U C169G U176G | 0.00681
C82A A111G A120C A145U C150G C169U U176G | 0.00564
C82A A111G A120C A145U C150G C169U U176C | 0.0102
C82A A111G A120C A145U C150G C169U U176A | 0.00666
C82A A111G A120C A145C C150G C169A | 0.0102
C82A A111G A120C A145C C150G C169G | 0.00705
C82A A111G A120C A145C C150G C169U | 0.009
C82A A111G A120C A145C C150U | 0.0161
C82A A111G A120C A145C C150A | 0.00953
C82A A111G A120C A145C C150G | 0.00968
